Changes are numbered by the printed parent chain. Names and notes keep the numbering of the source.
B1: GFP-arrestin-3 triple mutant D (SEQ ID NO: 5): T299A + I386A + R393A (protein)
chain: MGEKPGTRVFKKSSPNCKLTVYLGKRDFVDHLDKVDPVDGVVLVDPDYLKDRKVFVTLTCAFRYGREDLDVLGLSFRKDLFIATYQAFPPVPNPPRPPTRLQDRLLRKLGQHAHPFFFTIPQNLPCSVTLQPGPEDTGKACGVDFEIRAFCAKSLEEKSHKRNSVRLVIRKVQFAPEKPGPQPSAETTRHFLMSDRSLHLEASLDKELYYHGEPLNVNVHVTNNSTKTVKKIKVSVRQYADICLFSTAQYKCPVAQLEQDDQVSPSSTFCKVYTITPLLSDNREKRGLALDGKLKHEDANLASSTIVKEGANKEVLGILVSYRVKVKLVVSRGGDVSVELPFVLMHPKPHDHIPLPRPQSAAPETDVPVDTNLIEFDTNYATDDDAVFEDFAALRLKGMKDDDYDDQLC
B2: GFP-arrestin-3 triple mutant B (SEQ ID NO: 3): T299A + I386A + R166A (protein)
chain: B1 chain with R166A, A393R
B3: GFP-arrestin-3 triple mutant C (SEQ ID NO: 4): T299A + I386A + D298A (protein)
chain: B1 chain with D298A, A393R

Experiments:
[1] = biological target: RLuc8β2AR (β2-adrenergic receptor fused to RLuc8, BRET donor construct); test: BRET recruitment assay, RLuc8β2AR and GFP-arrestin-3 mutant in co-transfected cells, isoproterenol-induced
[2] = biological target: RLuc8β2AR (β2-adrenergic receptor fused to RLuc8, BRET donor construct); test: BRET recruitment assay in co-transfected cells, isoproterenol-induced
[3] = biological target: RLuc8β2AR (β2-adrenergic receptor fused to RLuc8, BRET donor construct); test: BRET recruitment assay, RLuc8β2AR and GFP-arrestin-3 mutant in co-transfected cells; the concentration varied is that of isoproterenol
[4] = biological target: RLuc8β2AR (β2-adrenergic receptor fused to RLuc8, BRET donor construct); test: BRET recruitment assay, RLuc8β2AR and GFP-arrestin-3 in co-transfected cells; the concentration varied is that of isoproterenol
[5] = biological target: RLuc8β2AR (β2-adrenergic receptor fused to RLuc8, BRET donor construct); test: BRET recruitment assay in co-transfected cells; the concentration is that of isoproterenol

Molecule	Efficacy (Emax) in %, normalized to WT [1] [%]	increase of efficacy in arrestin recruitment compared to wild-type arrestin-3 [2] [%]	Potency (pEC50 of isoproterenol for recruitment of the arrestin to β2AR) [3] [pEC50]	Potency (pEC50 of isoproterenol for recruitment of the arrestin to β2AR) [4] [pEC50]	potency as concentration of isoproterenol for half of the total recruitment of the arrestin to β2AR [5] [nM]
GFP-arrestin-3 double mutant A (SEQ ID NO: 2): T299A + I386A	132	30	7.1	–	–
GFP-arrestin-3 WT (human wild-type arrestin-3, SEQ ID NO: 1)	–	–	–	6.8	158
B1	89.2	–	7.2	–	–
B2	103	–	7.3	–	50.1
B3	109	–	7.2	–	–

Reference: US20220106382A1
